{
  "source": "the nanobody polyreactivity screen of Harvey et al. (2022)",
  "data": [
    {"assay": "yeast display, Sf9 membrane polyspecificity reagent, FACS + sequencing; frameworks hold sequencing errors", "procedure,_shortened": "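Sorting gates, low and high (top ~1%), were placed on anti-HA fluorescence to track expression and on streptavidin fluorescence to track reagent binding. A clone's polyreactivity label is taken from the gate it came out of. The reagent was 10% biotinylated, detergent-solubilized Sf9 membrane, applied for 1 hour at 4 °C to galactose-induced yeast display cells.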", "values": [
      {"sequence": "QVQLVESGGGLVKAGGSLRLSCAASGLILYRYVMGWYRQAPGKERELVAAISSSGGRTYYADSVKGRFTISRDIAKNTVYLQMNSMKPEDTAVYYCAKRRSDARRGYDYWGQGTQVTVSS", "polyreactivity (PSR sort gate)": "high polyreactivity"},
      {"sequence": "QVQLVESGGGLVQAGGSLRLSCAASGRILSVYAMGWYRQAPGKERELVAAIEYSGGSTNYADSVKVRFTISRDTSKHTVYLLMNSLLPEDTAVYYCNGEGGAIAWRYLLEYLYSWGQGTQVTVSS", "polyreactivity (PSR sort gate)": "low polyreactivity"},
      {"sequence": "QVQHVESVGGLDQAGGSLRLSSAASGRTFYLYAMGWYRQATGKEREFVADINSSGGSTYYADSVKGRFTISRDNAKNTVYLQMNSLKPEDTAVYYCAAYPIPRGRDYWGQGTQVTVSS", "polyreactivity (PSR sort gate)": "low polyreactivity"},
      {"sequence": "QVQLVESGGGLVQAGGSLRLSCAASGGILYYYAMGWYRQAPGKEREMVAAISSGGRTNYADSVKGRFTISRDNAMNTVYLQMNSLNPEDTAVYYCAARGATGFRRYGVTHYYYWGQGTQVNVSS", "polyreactivity (PSR sort gate)": "high polyreactivity"},
      {"sequence": "QVQLVESGGGLVQAGGSLRLSCAASGRIFAYYAMGWYRQAPGKEREVVAAISRSGVSTYYADSVKGRFTISRDNAKNTVYLQMNSLKPEDTAVYYCAARWRYGFTSGDYWGQGTQVNVSS", "polyreactivity (PSR sort gate)": "low polyreactivity"},
      {"sequence": "QVQLVESGGGLVQAGGSLRLSCAASGGIFSPNAMGWYRQAPGKERELVAAISSNGGSTNYADSVKGRFTISRDNAKNTVYLQMNSLKPEDTAVFYCAGLQLRRSYRRPFYWGQGTQVTVSS", "polyreactivity (PSR sort gate)": "low polyreactivity"},
      {"sequence": "QVQLEESGGGLVQAGGSLRLSCAASGSTIPPYAMGWYRQAPRKERELVAAITSGGSTYYADSVKGRFTISRDNAKNTVYLQMNSLKPEDTAVYYCAASWDPWEYDYWGQGTQVTVSS", "polyreactivity (PSR sort gate)": "low polyreactivity"},
      {"sequence": "QVQLVESGGGLVQAGGSLRLSCAASGRTFLIYAMGWYRQAPGKERELVAAINNGGSTYYADSVKGRFTISRDNAKNTVYLQMNSLKPEDTAVYYCAARQIRATRYYYWGQGTQVTVSS", "polyreactivity (PSR sort gate)": "high polyreactivity"},
      {"sequence": "QVQLVESGGGLVQAGGSLRLSCAASGFNYSNAMGWYRQAPGKERELVAAITSRGGSTYYADSVKGRFTISRDNAKNTVYLQMNSLKPEDTAVYYCATKVWTRFIYYYWGQGTQVTVSS", "polyreactivity (PSR sort gate)": "high polyreactivity"},
      {"sequence": "QVQLVESGGGLVQAGGSLRLSCAASGSTFYAYTMGWYRQAPGKERELVAAITSSGSNTYYADSVKGRFTISRDNAKNTVYLQMNSLKPEDTAVYYCAARITREGYYWGQGTQVTVSS", "polyreactivity (PSR sort gate)": "high polyreactivity"},
      {"sequence": "QVQLVESGGGLVQAGGSLRLSCAASGRIFRYNAMGWYRQAPGKEWELVAAIRFSGGSTYYADSVKGRFTLSRDNAKNTVYLHMNSLKPEDTAVYYCAKVYFRVQSGMDYWGQGTQVTVST", "polyreactivity (PSR sort gate)": "low polyreactivity"},
      {"sequence": "QVQLVESGGGLVQAGGSLRLSCAASGLTFSRYAMGWYRQAPGKERELVAAIKGRGGSTYYADSVKGRFTISRDNAKNTVYLQMNSLKPEDTAVYYCAATTRGSYSGNRPAYYWGQCTQVTVSS", "polyreactivity (PSR sort gate)": "high polyreactivity"},
      {"sequence": "QVQLVESGGGLVQAGGSLRLSCAASGIIFHGYAMGWYRQAPGKERDLVAAITASDGDTYYADSVKGRFTISRDNAKNTVYLQMNSMKPEDTAVYYCAADFWYYHTRMDYWGQGTQVTVSS", "polyreactivity (PSR sort gate)": "low polyreactivity"},
      {"sequence": "QVQLVESGGGLVQAGGSLRLSCAASGRTFWVYAMGWYRQAPGKERELVASIRRGGSTYYADSVKGRFTISRDNAKNTVYLQMNSLKPEDTAVYYCAAERPYKTFGYGYWGQGTQVTVSS", "polyreactivity (PSR sort gate)": "high polyreactivity"},
      {"sequence": "QVQLVESGGGLVQAGGSLRLSCAASGYIFLRNAMGWYRQAPGKERELVAAIRRTGGSTYYADSVKGRFTISRDNAKNTVYLQMNSLKPEDTAVYYCAKRSYTGYEYWGQGTQVTVSS", "polyreactivity (PSR sort gate)": "low polyreactivity"},
      {"sequence": "QVQLVESGVCLVQAGGSLRLSCAASGRIFYNYAMGWYRQAPGKERELVADISSSGTLTYYSDSVKGRFTISRDNAKNTVYLHMNSLKPEDTAVYYCAARYWFRFQYDYWGQGTQLTVSS", "polyreactivity (PSR sort gate)": "high polyreactivity"},
      {"sequence": "QVQLVESGGGLVQAGGSLRLSCAASGSIFSGNEMGWYRQAPGKDSELVATISWSGGSTNYADSVKGGFTISRDNAKNTVYLQMNSLKPEDTSVYYCAAVPGWVRQADGWVLSLLDYWGQGTQVTVSS", "polyreactivity (PSR sort gate)": "low polyreactivity"},
      {"sequence": "LVQLVESGGGLVQAGGSLRLSCAASGAIFYQDAQGCYRQAPGKERELVAAISKNGRSTYYADSVKGRFTISRDNAKNTVYLQMNSLKPEATAVYYCAARVLKGYYWGQGTQVTVSS", "polyreactivity (PSR sort gate)": "high polyreactivity"},
      {"sequence": "QVQLVESGGGLVQAGGSLRLSCAASGSPSYFNVKGWYRQAPGKERQLVAAISWSGGSTYADSVKGRFTISRDNAKNTVYLQMNSLKREDTAFYYCNKDYGYVQLRFYCPGYYWGQGTQVTVSS", "polyreactivity (PSR sort gate)": "low polyreactivity"},
      {"sequence": "HVQLVESGGGLVQAGGSLRLSCAASGGIFRGYTMGWYRQAPGKETEFVAAITYGGGGTYYADSVKGRFTISRDNAKNTVYLQMNSLKPEDTAVYYCNADLSDVAVTDHDYWGQGTQVTVSS", "polyreactivity (PSR sort gate)": "low polyreactivity"},
      {"sequence": "QVHLVESGGGLVHAGGSLRLSSAASGSIFGANTMGWYRQAPGKERELVAGITSGARTYYADSVKGRFTISRDNAKNTVYLQMNSLKPEDTAVYYCAAKYAWRRYGFWGQGTQVTVSS", "polyreactivity (PSR sort gate)": "high polyreactivity"},
      {"sequence": "QDQLVESGGGLVQAGGSLRLSCAASGSTFIDNVMGWYRQPPGQERELVAAINSGGSTDYADSLKGRFTISRDNAKNTVYLLMNRLKPEDTAVYYCNAYHIVIYDYWGQGTQVTVSS", "polyreactivity (PSR sort gate)": "low polyreactivity"},
      {"sequence": "QVQLVESGGGLVQAGGSLRFSCAASGRIFTVNAMGWDRQARGKERELVASITGRGTRTYYADSVKGRFTISRDNAKNTVYLQMNSLKPEDTAVYYCAARAVKQYGNSYDYWGQGTQVTVSS", "polyreactivity (PSR sort gate)": "high polyreactivity"},
      {"sequence": "QVQLVESGGGLVQAGGSLRLSCAYSGLTFTWYAMGWYRQAPGKERELVAGISSGTSTNYADSVKGRFSISRDTAKNTVYLQMNSMKAEATAVYYCNAKQLGKFDYWGQGTHVTVSS", "polyreactivity (PSR sort gate)": "low polyreactivity"},
      {"sequence": "QVQLVESGGGLVQAGGSLRLICAASGSTFDINAMGWYRQAPGKERELVAAITWRSGRTYYADSVKGRFTISRDNAKNTVYLQMNSLKPEDTAVYYCAADDTSYYIYSYDYWGQGTQVTVSS", "polyreactivity (PSR sort gate)": "low polyreactivity"},
      {"sequence": "QVQLVESGGGLVQAGGSLRLSCAASGFIFYDYAMGWYRQAPGKERELVAAIRSSDGGTYYADSEKGPFTISRDNAKNTVYLQMNSLKPEDTAVDYCAAEIRWGWHPYYDYDEYWGQGTLVTVSS", "polyreactivity (PSR sort gate)": "low polyreactivity"},
      {"sequence": "QVQLVESGGGLVQAGGSLRLSCAASGSTFGPYAMGWYRQAPGKERELVATIRGSGATTYYADSVKGRFTISRDNAKNTVYLQMHSLKPEDTAVYYCATAYFSGWYNRYGRATSYDYWGQGTQVTVSS", "polyreactivity (PSR sort gate)": "high polyreactivity"},
      {"sequence": "QVQLVESGGGLVQAGGSLRLSCAASGSIVYTNALGWSRQAPAKERELVAAISGSGGNTYYADSVKVRFTISRDNAKNTVYLQMNSLNPEDTAVYYCAADRNAYYYDSYYYWGLGTQVTVSS", "polyreactivity (PSR sort gate)": "high polyreactivity"},
      {"sequence": "QVQLVESGGGLVQAGGSLRLSSAASGSIFPRYVMGCYRQAPGKERELVPAISRGGSTNYADSVKGRFTISRDNAKNTVYLQMNSLKPEDTAVYYCDAVLYTRYNYWGQGTQVTVSS", "polyreactivity (PSR sort gate)": "high polyreactivity"},
      {"sequence": "QVQLVESGGGLVQAGGSLRLSCAASGRTFYFNGMGWSRQAPGKETELVAVITKSGGDTYYADSVKGRFTISRDNAKNTVYLQMNSLKPEDTAVYYCAAVYGYYTYWIPGFTWAVDYWGQGTQVTVSS", "polyreactivity (PSR sort gate)": "low polyreactivity"},
      {"sequence": "QVQLVESGGGLVQEGGCLRLSSAASGSIFKSNAMGWYRQAPGKERELVATISRIGGSTYYADSVKGRFTISRDNAKNTVYLQMNCLKPEDTAVYYFAARRYLYTVGYGPRRGLVYWGQGTQVTVSS", "polyreactivity (PSR sort gate)": "high polyreactivity"},
      {"sequence": "QVQLVESGGGLVQSGGSLRLSSAASGYTFWAYPMGWYRQAPGKERELVAGISSRGSRTYYADSVKGRFTISRDNAKNTVYLQMNSLKPEDTAVYFCNALRTAQGYYPPLDYWGQGTQVTVSS", "polyreactivity (PSR sort gate)": "high polyreactivity"}
    ]}
  ]
}
